The target in the assay is T1, recombinant trimeric gp140 from HIV-1 92UG037 (clade A) (HIV-1 92UG037 (clade A), UniProt Q5VFI3, strain).
T1 construct: source: provided by S. Jeffs (Imperial College London)
In words: ELISA. Particulars: both partners purified.

B1: 3E3 with the three germ line CDR2 residues re-inserted (VHH)
VHH: EVQLVESGGGLVQPGGSLRLSCAASQFTLESYAIGWFRQAPGKDSEGVACISSSDGSTYYADSVKGRFTISRDNAKNTVYLQMESLKPEDTAVYHCATSGAGSYCTLRAFGSWGQGTQVTVSS
B1: the binding result is “no binding”.
